# T1: FcgRIIb extracellular domain, C-terminal His tag (human, UniProt P31994 43-217)
# T1 construct: extracellular domain; also called FcγRIIb; 2b; not shown: His tag attached to the C terminus
# T1 sequence (looked up): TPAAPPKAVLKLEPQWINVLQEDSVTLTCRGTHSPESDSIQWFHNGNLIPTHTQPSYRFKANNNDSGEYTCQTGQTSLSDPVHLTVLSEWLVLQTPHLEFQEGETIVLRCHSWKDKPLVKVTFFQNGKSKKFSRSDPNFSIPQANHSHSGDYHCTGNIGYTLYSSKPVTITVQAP
# T2: FcgRIIa R type extracellular domain, C-terminal His tag (human, UniProt P12318 34-217)
# T2 construct: extracellular domain; also called FcγRIIa R; 2aR; not shown: His tag attached to the C terminus
# T2 sequence (looked up): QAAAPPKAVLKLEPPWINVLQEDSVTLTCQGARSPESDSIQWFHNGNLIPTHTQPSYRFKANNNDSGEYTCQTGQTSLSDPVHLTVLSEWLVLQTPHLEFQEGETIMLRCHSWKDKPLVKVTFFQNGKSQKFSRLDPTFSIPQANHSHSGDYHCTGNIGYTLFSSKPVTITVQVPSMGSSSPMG
# T3: FcgRIIa H type extracellular domain, C-terminal His tag (human, UniProt P12318 34-217)
# T3 construct: extracellular domain; also called FcγRIIa H; 2aH; not shown: His tag attached to the C terminus
# T3 sequence (looked up): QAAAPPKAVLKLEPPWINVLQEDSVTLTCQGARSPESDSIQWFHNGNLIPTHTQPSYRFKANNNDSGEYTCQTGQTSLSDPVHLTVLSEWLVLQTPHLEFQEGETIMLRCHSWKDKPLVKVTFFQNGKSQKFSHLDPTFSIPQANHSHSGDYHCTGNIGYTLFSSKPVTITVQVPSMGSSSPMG
# Legend:
# Experiment in all cases: SPR (Biacore), antibody captured on chip, FcgR extracellular domain as analyte, 25 C, 1:1 Langmuir fit; experiment #3
# [1] = target: T1, FcgRIIb extracellular domain, …
# Method: (§1) Antibodies of interest were analyzed for the interaction to FcgR according to the method described in Reference Example 8.
# (§2) Analysis of interaction between obj ective antibody and the FcγR was carried out using Biacore T100 (GE Healthcare), Biacore T200, Biacore A100, and Biacore 4000. HBS-EP+ (GE Healthcare) was used as the running buffer, and the measurement temperature was set to 25° C. Chips produced by immobilizing the antigen peptide by the amine coupling method to a Series S sensor Chip CM5 (GE Healthcare), chips produced by allowing preliminarily biotinylated antigen peptides to interact with and immobilize onto a Series S Sensor Chip SA (certified) (GE Healthcare), chips produced by immobilizing Protein L (ACTIGEN, BioVision) to Series S Sencor Chip CM5 (GE Healthcare), or chips produced by immobilizing Protein A/G (Thermo Scientific) to Series S Sencor Chip CM5 (GE Healthcare) were used. Antibodies of interest were captured onto these chips, and allowed to interact to each FcγR diluted with running buffer. To regenerate and repeatedly use the chip, the antibodies captured onto the chip were washed off by reacting 10 mM glycine-HCl, pH 1.5.
# [2] = target: T2, FcgRIIa R type extracellular domain, …
# Method: as §1, §2
# [3] = target: T3, FcgRIIa H type extracellular domain, …
# Method: as §1, §2
# [4] = target: T4, FcgRIIIa F type extracellular domain, C-terminal His tag (human, UniProt P08637 17-208)
# T4 construct: extracellular domain; also called FcγRIIIa F; 3aF; not shown: His tag attached to the C terminus
# Method: as §1, §2
# [5] = target: T5, FcgRI extracellular domain, C-terminal His tag (human, UniProt P12314 16-292)
# T5 construct: extracellular domain; also called FcγRIa; FcgRIa; not shown: His tag attached to the C terminus
# Method: as §1, §2
# [6] = target: T6, FcgRIIIa V type extracellular domain, C-terminal His tag (human, UniProt P08637 17-208)
# T6 construct: extracellular domain; also called FcγRIIIa V; 3aV; not shown: His tag attached to the C terminus
# Method: as §1, §2
# T5 sequence (P12314 16-292): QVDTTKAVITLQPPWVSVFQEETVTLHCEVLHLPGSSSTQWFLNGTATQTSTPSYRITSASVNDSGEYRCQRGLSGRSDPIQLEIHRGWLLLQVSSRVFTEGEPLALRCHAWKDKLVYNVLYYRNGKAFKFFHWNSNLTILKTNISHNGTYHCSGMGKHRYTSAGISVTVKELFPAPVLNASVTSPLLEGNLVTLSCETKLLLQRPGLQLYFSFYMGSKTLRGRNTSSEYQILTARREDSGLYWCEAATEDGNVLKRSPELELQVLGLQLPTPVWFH
# T6 sequence (P08637 17-208 F176V limits assumed): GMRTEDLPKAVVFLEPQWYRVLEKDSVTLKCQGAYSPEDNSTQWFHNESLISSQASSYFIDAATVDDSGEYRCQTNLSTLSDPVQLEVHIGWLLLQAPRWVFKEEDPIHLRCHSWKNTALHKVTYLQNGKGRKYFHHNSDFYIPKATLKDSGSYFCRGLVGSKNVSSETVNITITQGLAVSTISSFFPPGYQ
# T4 sequence (P08637 17-208): as the sequence (P08637 17-208 F176V limits assumed) above, with V160F counted along it
Binder,Kd [1] [nM],Kd [2] [nM],Kd [3] [nM],Kd [4] [nM],Kd [5] [nM],Kd [6] [nM]
"H240-FA021/H240-FB059/L73-k0 (antibody, human IgG1, kappa, Heterodimerized anti-epiregulin IgG1 antibody) heavy 1: QDQLVQSGAEVKKPGASVKVSCKASGFNIKDTYIQWVRQAPGQGLEWMGRIDPLRKQTKYREKFEGRVTITADTSTNTAYMELSSLRSEDTAVYYCVRSGREFDYWGQGTLVTVSSASTKGPSVFPLAPSSKSTSGGTAALGCLVKDYFPEPVTVSWNSGALTSGVHTFPAVLQSSGLYSLSSVVTVPSSSLGTKTYTCNVNHKPSNTKVDKKVEPKSCDKTHTCPPCPAPEYYWGPSVFLFPPKPKDTLMISRTPEVTCVVVDVSDEEPEVKFNWYVDGVEVHNAKTKPREEQYNATYRVVSVLTVLHQDWLNGKEYKCKVSNKALPAPIEKTISKAKGQPREPQVYTLPPSRKEKTKNQVSLTCLVKGFYPSDIAVEWESNGQPENNYKTTPPKLDSDGSFFLYSKLTVDKSRWQQGNVFSCSVMHEALHNRYTQKSLSLSP heavy 2: QDQLVQSGAEVKKPGASVKVSCKASGFNIKDTYIQWVRQAPGQGLEWMGRIDPLRKQTKYREKFEGRVTITADTSTNTAYMELSSLRSEDTAVYYCVRSGREFDYWGQGTLVTVSSASTKGPSVFPLAPSSKSTSGETAALGCLVEDYFPEPVTVSWNSGALTSGVHTFPAVLQSSGLYSLSSVVTVPSSSLGTQTYICNVNHKPSNTKVDKKVEPKSCDKTHTCPPCPAPELLGGPSVFLFPPKPKDTLMISRTPEVTCVVVDVSHEEPEVQFNWYVDGVEVHNAETKPREEQYNSTYRVVSVLTVLHQDWLNGKEYKCKVSNDALPMPIEETISKAKGQPREPQVYTLPPSREEMTKNQVSLTCLVKGFYPSDIAVEWESNGQPENNYKTTPPVLDSDGSFFLYSKLTVDKSRWQQGNVFSCSVMHEALHNHYTQESLSLSP light: DIQMTQSPSSLSASVGDRVTITCRASQDIHKYIAWYQQKPGQAPRLLIQYTSTLQPGVPSRFSGSGSGTDYTFTISSLQPEDIATYYCLQYEQLRTFGGGTKVEIKRTVAAPSVFIFPPSDEQLKSGTASVVCLLNNFYPREAKVQWKVDNALQSGNSQESVTEQDSKDSTYSLSSTLTLSKADYEKHKVYACEVTHQGLSSPVTKSFNRGEC",1300,280,92,4.4,0.069,1.7
"H240-FA020/H240-FB059/L73-k0 (antibody, human IgG1, kappa, Heterodimerized anti-epiregulin IgG1 antibody) heavy 1: QDQLVQSGAEVKKPGASVKVSCKASGFNIKDTYIQWVRQAPGQGLEWMGRIDPLRKQTKYREKFEGRVTITADTSTNTAYMELSSLRSEDTAVYYCVRSGREFDYWGQGTLVTVSSASTKGPSVFPLAPSSKSTSGGTAALGCLVKDYFPEPVTVSWNSGALTSGVHTFPAVLQSSGLYSLSSVVTVPSSSLGTKTYTCNVNHKPSNTKVDKKVEPKSCDKTHTCPPCPAPEYYWGPSVFLFPPKPKDTLMISRTPEVTCVVVDVSDEEPEVKFNWYVDGVEVHNAKTKPREEQYNATYRVVSVLTVLHQDWLNGKEYKCKVSNKALPAPIEKTISKAKGQPREPQVYTLPPSRKEKTKNQVSLTCLVKGFYPSDIAVEWESNGQPENNYKTTPPVLDSDGSFFLYSKLTVDKSRWQQGNVFSCSVMHEALHNRYTQKSLSLSP heavy 2: QDQLVQSGAEVKKPGASVKVSCKASGFNIKDTYIQWVRQAPGQGLEWMGRIDPLRKQTKYREKFEGRVTITADTSTNTAYMELSSLRSEDTAVYYCVRSGREFDYWGQGTLVTVSSASTKGPSVFPLAPSSKSTSGETAALGCLVEDYFPEPVTVSWNSGALTSGVHTFPAVLQSSGLYSLSSVVTVPSSSLGTQTYICNVNHKPSNTKVDKKVEPKSCDKTHTCPPCPAPELLGGPSVFLFPPKPKDTLMISRTPEVTCVVVDVSHEEPEVQFNWYVDGVEVHNAETKPREEQYNSTYRVVSVLTVLHQDWLNGKEYKCKVSNDALPMPIEETISKAKGQPREPQVYTLPPSREEMTKNQVSLTCLVKGFYPSDIAVEWESNGQPENNYKTTPPVLDSDGSFFLYSKLTVDKSRWQQGNVFSCSVMHEALHNHYTQESLSLSP light: DIQMTQSPSSLSASVGDRVTITCRASQDIHKYIAWYQQKPGQAPRLLIQYTSTLQPGVPSRFSGSGSGTDYTFTISSLQPEDIATYYCLQYEQLRTFGGGTKVEIKRTVAAPSVFIFPPSDEQLKSGTASVVCLLNNFYPREAKVQWKVDNALQSGNSQESVTEQDSKDSTYSLSSTLTLSKADYEKHKVYACEVTHQGLSSPVTKSFNRGEC",1300,250,77,3.5,0.038,1.3
